Source: US11999805

Tests used:
[1] = tested on: T1, 90-2-5
T1 sequence: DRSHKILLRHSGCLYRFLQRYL

[2] = tested on: T2, Peptide 61
T2 sequence: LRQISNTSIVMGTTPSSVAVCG

[3] = tested on: T3, 82-2-28
T3 sequence: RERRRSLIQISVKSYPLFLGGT

[4] = tested on: T4, 60-1-56
T4 sequence: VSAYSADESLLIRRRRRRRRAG

[5] = tested on: T5, 82-2-12
T5 sequence: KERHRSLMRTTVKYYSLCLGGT

[6] = tested on: T6, 90-1-27
T6 sequence: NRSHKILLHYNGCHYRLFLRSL

[7] = tested on: T7, 82-2-21
T7 sequence: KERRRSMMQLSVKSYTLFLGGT

[8] = tested on: T8, 90-1-50
T8 sequence: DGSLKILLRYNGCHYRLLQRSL

[9] = tested on: T9, Peptide 60
T9 sequence: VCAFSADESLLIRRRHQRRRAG

[10] = tested on: T10, 50-20-14
T10 sequence: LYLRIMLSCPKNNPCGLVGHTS

[11] = tested on: T11, Peptide 99
T11 sequence: RRSHIAWLLAMSLTWYS

[12] = tested on: T12, Peptide 73
T12 sequence: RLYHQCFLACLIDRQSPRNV

[13] = tested on: T13, 99-1-1
T13 sequence: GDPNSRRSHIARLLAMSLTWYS

[14] = tested on: T14, 60-1-10
T14 sequence: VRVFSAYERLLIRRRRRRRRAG

[15] = tested on: T15, Peptide 82
T15 sequence: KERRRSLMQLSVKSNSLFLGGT

[16] = tested on: T16, 90-2-18
T16 sequence: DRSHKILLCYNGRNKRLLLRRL

[17] = tested on: T17, 50-2-13
T17 sequence: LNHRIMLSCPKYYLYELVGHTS

[18] = tested on: T18, Peptide 63
T18 sequence: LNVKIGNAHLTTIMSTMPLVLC

[19] = tested on: T19, Peptide 90
T19 sequence: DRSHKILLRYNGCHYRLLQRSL

[20] = tested on: T20, Peptide 15
T20 sequence: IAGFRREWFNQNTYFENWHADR

[21] = tested on: T21, 99-2-2
T21 sequence: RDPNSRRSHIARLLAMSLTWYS

[22] = tested on: T22, 63-2-87
T22 sequence: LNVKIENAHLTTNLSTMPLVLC

[23] = tested on: T23, Peptide 80
T23 sequence: TESIRSYFAMTIRRNH

[24] = tested on: T24, 63-2-27
T24 sequence: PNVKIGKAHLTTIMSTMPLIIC

[25] = tested on: T25, 50-2-16
T25 sequence: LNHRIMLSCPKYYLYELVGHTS

[26] = tested on: T26, Peptide 91
T26 sequence: VYDFYRMLSHFFLKGPSR

[27] = tested on: T27, 90-1-18
T27 sequence: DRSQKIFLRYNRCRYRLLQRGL

[28] = tested on: T28, Peptide 50
T28 sequence: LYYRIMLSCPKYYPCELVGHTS

[29] = target: SpyCas9 (S. pyogenes) (UniProt Q99ZW2); assay: cell-based or functional assay

SpyCas9
decrease in cleavage-based fluorescence at 200 µM peptide, FRET assay [1]: All of the MPs drastically reduced SpyCas9 substrate cleavage at 200 µM with a greater than 88% decrease in fluorescence
substrate cleavage, denaturing 15% urea PAGE, peptide 200 µM [1]: 17 hits were identified that reduced fluorescence and substrate cleavage in the Cas9 cleavage reaction (visualized by Gel) at 200 µM
substrate cleavage, FRET assay, peptide 200 to 12.5 µM [2]: the peptides inhibited substrate cleavage in a peptide concentration-dependent manner
decrease in cleavage-based fluorescence at 200 µM peptide, FRET assay [3]: All of the MPs drastically reduced SpyCas9 substrate cleavage at 200 µM with a greater than 88% decrease in fluorescence
substrate cleavage, denaturing 15% urea PAGE, peptide 200 µM [3]: 17 hits were identified that reduced fluorescence and substrate cleavage in the Cas9 cleavage reaction (visualized by Gel) at 200 µM
decrease in cleavage-based fluorescence at 200 µM peptide, FRET assay [4]: All of the MPs drastically reduced SpyCas9 substrate cleavage at 200 µM with a greater than 88% decrease in fluorescence
substrate cleavage, denaturing 15% urea PAGE, peptide 200 µM [4]: 17 hits were identified that reduced fluorescence and substrate cleavage in the Cas9 cleavage reaction (visualized by Gel) at 200 µM
decrease in cleavage-based fluorescence at 200 µM peptide, FRET assay [5]: All of the MPs drastically reduced SpyCas9 substrate cleavage at 200 µM with a greater than 88% decrease in fluorescence
substrate cleavage, denaturing 15% urea PAGE, peptide 200 µM [5]: 17 hits were identified that reduced fluorescence and substrate cleavage in the Cas9 cleavage reaction (visualized by Gel) at 200 µM
decrease in cleavage-based fluorescence at 200 µM peptide, FRET assay [6]: All of the MPs drastically reduced SpyCas9 substrate cleavage at 200 µM with a greater than 88% decrease in fluorescence
substrate cleavage, denaturing 15% urea PAGE, peptide 200 µM [6]: 17 hits were identified that reduced fluorescence and substrate cleavage in the Cas9 cleavage reaction (visualized by Gel) at 200 µM
decrease in cleavage-based fluorescence at 200 µM peptide, FRET assay [7]: All of the MPs drastically reduced SpyCas9 substrate cleavage at 200 µM with a greater than 88% decrease in fluorescence
substrate cleavage, denaturing 15% urea PAGE, peptide 200 µM [7]: 17 hits were identified that reduced fluorescence and substrate cleavage in the Cas9 cleavage reaction (visualized by Gel) at 200 µM
decrease in cleavage-based fluorescence at 200 µM peptide, FRET assay [8]: All of the MPs drastically reduced SpyCas9 substrate cleavage at 200 µM with a greater than 88% decrease in fluorescence
substrate cleavage, denaturing 15% urea PAGE, peptide 200 µM [8]: 17 hits were identified that reduced fluorescence and substrate cleavage in the Cas9 cleavage reaction (visualized by Gel) at 200 µM
% activity, FRET cleavage assay [9]: Peptide 60, 90, and 91 significantly reduced activity of SauCas9 and SpyCas9 at 200 µM (P<0.005)
substrate cleavage, FRET assay, peptide 200 to 12.5 µM [9]: the peptides inhibited substrate cleavage in a peptide concentration-dependent manner
decrease in cleavage-based fluorescence at 200 µM peptide, FRET assay [10]: All of the MPs drastically reduced SpyCas9 substrate cleavage at 200 µM with a greater than 88% decrease in fluorescence
substrate cleavage, denaturing 15% urea PAGE, peptide 200 µM [10]: 17 hits were identified that reduced fluorescence and substrate cleavage in the Cas9 cleavage reaction (visualized by Gel) at 200 µM
% activity, FRET cleavage assay [11]: Peptide 99 significantly reduced activity of all three Cas9 variants at 100 and 200 µM (P<0.005)
substrate cleavage, FRET assay, peptide 200 to 12.5 µM [11]: the peptides inhibited substrate cleavage in a peptide concentration-dependent manner
substrate cleavage, FRET assay, peptide 200 to 12.5 µM [12]: the peptides inhibited substrate cleavage in a peptide concentration-dependent manner
decrease in cleavage-based fluorescence at 200 µM peptide, FRET assay [13]: All of the MPs drastically reduced SpyCas9 substrate cleavage at 200 µM with a greater than 88% decrease in fluorescence
substrate cleavage, denaturing 15% urea PAGE, peptide 200 µM [13]: 17 hits were identified that reduced fluorescence and substrate cleavage in the Cas9 cleavage reaction (visualized by Gel) at 200 µM
decrease in cleavage-based fluorescence at 200 µM peptide, FRET assay [14]: All of the MPs drastically reduced SpyCas9 substrate cleavage at 200 µM with a greater than 88% decrease in fluorescence
substrate cleavage, denaturing 15% urea PAGE, peptide 200 µM [14]: 17 hits were identified that reduced fluorescence and substrate cleavage in the Cas9 cleavage reaction (visualized by Gel) at 200 µM
substrate cleavage, FRET assay, peptide 200 to 12.5 µM [15]: the peptides inhibited substrate cleavage in a peptide concentration-dependent manner
decrease in cleavage-based fluorescence at 200 µM peptide, FRET assay [16]: All of the MPs drastically reduced SpyCas9 substrate cleavage at 200 µM with a greater than 88% decrease in fluorescence
substrate cleavage, denaturing 15% urea PAGE, peptide 200 µM [16]: 17 hits were identified that reduced fluorescence and substrate cleavage in the Cas9 cleavage reaction (visualized by Gel) at 200 µM
decrease in cleavage-based fluorescence at 200 µM peptide, FRET assay [17]: All of the MPs drastically reduced SpyCas9 substrate cleavage at 200 µM with a greater than 88% decrease in fluorescence
substrate cleavage, denaturing 15% urea PAGE, peptide 200 µM [17]: 17 hits were identified that reduced fluorescence and substrate cleavage in the Cas9 cleavage reaction (visualized by Gel) at 200 µM
substrate cleavage, FRET assay, peptide 200 to 12.5 µM [18]: the peptides inhibited substrate cleavage in a peptide concentration-dependent manner
% activity, FRET cleavage assay [19]: Peptide 60, 90, and 91 significantly reduced activity of SauCas9 and SpyCas9 at 200 µM (P<0.005)
substrate cleavage, FRET assay, peptide 200 to 12.5 µM [19]: the peptides inhibited substrate cleavage in a peptide concentration-dependent manner
% activity, FRET cleavage assay [20]: Peptide15 significantly reduced activity of CjeCas9 and SpyCas9 and SauCas9 at 200 µM (P<0.01)
substrate cleavage, FRET assay, peptide 200 to 12.5 µM [20]: the peptides inhibited substrate cleavage in a peptide concentration-dependent manner
decrease in cleavage-based fluorescence at 200 µM peptide, FRET assay [21]: All of the MPs drastically reduced SpyCas9 substrate cleavage at 200 µM with a greater than 88% decrease in fluorescence
substrate cleavage, denaturing 15% urea PAGE, peptide 200 µM [21]: 17 hits were identified that reduced fluorescence and substrate cleavage in the Cas9 cleavage reaction (visualized by Gel) at 200 µM
decrease in cleavage-based fluorescence at 200 µM peptide, FRET assay [22]: All of the MPs drastically reduced SpyCas9 substrate cleavage at 200 µM with a greater than 88% decrease in fluorescence
substrate cleavage, denaturing 15% urea PAGE, peptide 200 µM [22]: 17 hits were identified that reduced fluorescence and substrate cleavage in the Cas9 cleavage reaction (visualized by Gel) at 200 µM
substrate cleavage, FRET assay, peptide 200 to 12.5 µM [23]: the peptides inhibited substrate cleavage in a peptide concentration-dependent manner
decrease in cleavage-based fluorescence at 200 µM peptide, FRET assay [24]: All of the MPs drastically reduced SpyCas9 substrate cleavage at 200 µM with a greater than 88% decrease in fluorescence
substrate cleavage, denaturing 15% urea PAGE, peptide 200 µM [24]: 17 hits were identified that reduced fluorescence and substrate cleavage in the Cas9 cleavage reaction (visualized by Gel) at 200 µM
decrease in cleavage-based fluorescence at 200 µM peptide, FRET assay [25]: All of the MPs drastically reduced SpyCas9 substrate cleavage at 200 µM with a greater than 88% decrease in fluorescence
substrate cleavage, denaturing 15% urea PAGE, peptide 200 µM [25]: 17 hits were identified that reduced fluorescence and substrate cleavage in the Cas9 cleavage reaction (visualized by Gel) at 200 µM
% activity, FRET cleavage assay [26]: Peptide 60, 90, and 91 significantly reduced activity of SauCas9 and SpyCas9 at 200 µM (P<0.005)
substrate cleavage, FRET assay, peptide 200 to 12.5 µM [26]: the peptides inhibited substrate cleavage in a peptide concentration-dependent manner
decrease in cleavage-based fluorescence at 200 µM peptide, FRET assay [27]: All of the MPs drastically reduced SpyCas9 substrate cleavage at 200 µM with a greater than 88% decrease in fluorescence
substrate cleavage, denaturing 15% urea PAGE, peptide 200 µM [27]: 17 hits were identified that reduced fluorescence and substrate cleavage in the Cas9 cleavage reaction (visualized by Gel) at 200 µM
substrate cleavage, FRET assay, peptide 200 to 12.5 µM [28]: the peptides inhibited substrate cleavage in a peptide concentration-dependent manner

AcrIIA4
reduced editing (compared to plasmid control), A549 GFP reporter cells [29]: 74%
